Test results: the RNAGym collection of RNA variant scans (doi:10.7554/elife.80360)

B1: Hairpin Ribozyme (parent)
chain: GUCCUCUUUCACGUGCGCGUGAAAGAGAGAAGUGAACCAGAGAAACACACGUUGUGGUAUAUUACCUGGUA

Variants of: B1
Test: self-cleavage, relative activity (ratio to wild type); higher = more cleavage; co-transcriptional

Variant	self-cleavage
A23G A71U	0.634
A41U A64U	0.258
G19C A59U	0.19
U2A U14A	0.174
G15A A24G	0.963
U9C G40U	0.169
U20A C65G	0.182
G56U A71G	0.127
U9C A24C	0.657
A43G A71C	0.458
A22U A43C	0.178
G27A C46A	0.103
G15U U55A	0.304
A45U C65G	0.155
G13A C38A	0.154
A11G G69U	0.215
A31G C37A	0.158
G15A C37A	0.388
C50U U70G	0.178
U7G G51A	0.891
C46G	0.15
A41U U70A	0.776
G25U U58A	0.447
C37A G68U	0.332

Variant	self-cleavage
A23C G69A	0.379
U9C G27A	0.4
U14C A64U	0.199
U7A A61C	0.188
G42U G56C	0.147
C12A U63C	0.2
U33G G69A	0.0603
G34U A64C	0.376
C12A G25U	0.559
U53G G68C	0.18
A45G C46A	0.17
G13A C48U	0.22
G42C U58C	0.185
U2A U20G	0.201
U7G U14C	0.701
C10A G21C	0.67
G17C A47G	0.0817
C3G U20C	0.302
A49G U67A	0.208
U8C U62A	0.192
U2C G68U	0.161
U60A C65G	0.254
U20G G29A	0.0828
U55A U63G	0.142

Variant	self-cleavage
A22C C38G	0.215
A11G C37U	0.357
G34U U62G	0.139
C37A G57A	0.145
U7C G57U	0.213
A44G G56C	0.0768
U14C U63G	0.0837
A22C C48G	0.138
U7C A31C	0.112
G1U A44U	0.128
A49U A61C	0.0823
U7A C37G	0.342
G21C A44U	0.0331
G42U A43G	0.102
U33A G68A	0.161
C10A C12A	0.476
G15U A71G	1.12
U14A G54C	0.338
C18U G21U	0.814
U2C G27C	0.153
C3G A30U	0.118
G15U G42A	0.207
G29C C65A	0.204
A30C U55A	0.146

Variant	self-cleavage
C3A G19C	0.535
C18G C38G	0.125
A22C U53G	0.822
C16U U58A	0.731
A26U C50A	0.209
G29C A49U	0.109
U20G G34A	1.19
C10A U60A	0.64
G21C A23C	0.422
U8A C12G	0.552
C3A G68A	0.172
C18G G29A	0.133
U9G U60C	1.04
G34A U55C	0.487
U20G G51A	0.909
A11C G57U	0.323
A11C A28C	0.481
C66U A71G	0.484
G17A A39C	0.51
G54U U60A	0.252
G13U G51C	0.745
C18G A64U	0.18
A28U A71G	0.673
A11C A35G	0.837

Variant	self-cleavage
C18A A59U	0.242
A23U G34U	1.34
U53A U55C	0.256
U60G U62C	0.244
C6G U20C	0.368
A31G U33A	0.165
U8C A71U	0.569
A43C U63A	0.126
G15C G42U	0.19
U20G A30G	0.148
U2G G51A	0.306
C4U G19C	0.219
A11C G40A	0.318
G17A A41C	1.38
G13A U63C	0.175
G29C G68U	0.125
U70A A71G	0.886
A31G U52G	0.4
G13U A39G	0.273
A41U G57U	0.493
G19A A45U	0.1
A39G U53A	0.295
A31G U52A	0.764
C6A G32A	0.122

Variant	self-cleavage
G13C A31C	0.227
A26C G54C	0.243
U2A U58C	0.21
C4G U5A	0.203
C12A U62C	0.0739
A35C C48G	0.131
A61C G68U	0.278
U2A C65G	0.146
C38U U53C	0.823
A26G G42A	0.245
G29C C65G	0.209
G51A U60C	0.944
A31C C46A	0.0889
A39C A71C	0.88
A22C C38U	0.552
G34C A64G	0.792
G21C A41C	0.957
U5C A61G	0.176
G21U A23G	0.772
G42U A43C	0.179
C10U U58G	0.557
C46U G68U	0.119
C12U G15U	1.08
G15U C65G	0.244

Variant	self-cleavage
C3U G40A	0.169
G21C U60C	0.851
A22G U63A	0.22
A23G C37U	0.466
U2G A36C	0.208
C38G A71C	0.272
A36C C37A	0.185
U8A A26U	0.421
C16G G68C	0.153
C46A A71C	0.342
A11U A41U	1
A35U A41G	0.599
C16A G32A	0.121
A30U A44U	0.16
G29C A47C	0.15
A44G C66G	0.15
C38A A43G	0.0867
U2A A61G	0.106
G1A G69A	0.164
G40U U67G	0.151
A30G U53G	0.157
A36C G54C	0.327
A30U U60A	0.346
A41U U58C	1.41

Variant	self-cleavage
U2G U7A	0.255
U9G A24U	0.483
A11U G51C	0.706
G51C G54U	0.404
A43G G68U	0.092
A30G A31G	0.157
A28C U63C	0.251
A26C A44C	0.0715
A28C U55C	0.216
A71C	1.42
G42A G56C	0.105
C48A U70C	0.27
G69C U70G	0.657
A11U G40A	0.242
U20A A59U	0.144
A28G G68C	0.115
U2A C37A	0.161
G42U A61U	0.283
G34U G42A	0.883
C10A U20A	0.781
C6U A30C	0.205
U14G C46G	0.131
G25C C48A	0.129
A59G G68C	0.144

Variant	self-cleavage
U8A A11U	0.619
C46G U52C	0.144
A30U C65U	0.0165
U20A C46U	0.183
A47C C65G	0.203
C10A G40C	0.158
A26C C38A	0.163
A35U A39G	0.433
G25A U67A	0.118
G17U A59C	0.0796
C10G C37G	0.372
G19U U58G	0.672
A35U U55G	0.281
C18A A23U	0.923
G19U G57U	0.207
U9C U20G	0.503
U2G U70G	0.244
C4U U33A	0.283
C18G A43C	0.122
U2G U60G	0.278
A28G A59C	0.114
U2G A49U	0.053
A28G A30G	0.218
C12G U62C	0.235

Variant	self-cleavage
G42U A49G	0.134
A31C G32C	0.228
G56C C65U	0.16
U70G A71G	1.82
C10U A11C	0.696
G19A U62C	0.278
C3G A23C	0.194
C4G G56A	0.249
A26U U60G	0.437
A47G C50G	0.105
G29C U70A	0.162
A30U A31C	0.288
U2C A36C	0.17
C12G A24G	0.778
A26G A47C	0.251
U9A G13U	0.479
U2C C65A	0.195
C16G G54U	0.493
A41G A59U	0.138
U5G A41U	0.607
C6G A45G	0.0674
U9C A44C	0.183
U9A U67G	0.152
U14C U67C	0.227

Variant	self-cleavage
U9G C48U	0.158
C4U A49C	0.259
A47G A64C	0.0744
G21C A71G	0.818
U7C G19A	0.559
G13U A47U	0.129
A28G U55A	0.208
U33C A49G	0.123
C4A G25U	0.214
C4U C50U	0.213
U5G U8G	0.262
A24U G54U	0.476
A24C A26U	0.463
C18A A24C	0.994
G51C U62C	0.239
A23U U33C	0.144
C3G G17U	0.365
G51A U63A	0.175
C10U C50U	0.391
U5G U70A	0.204
A26G G32U	0.121
A30U C65G	0.228
U8C A49C	0.216
A43C A61C	0.218

Variant	self-cleavage
G21C U67A	0.212
A35U C50U	0.18
U5G A47G	0.123
A41G	0.913
G27C U58A	0.123
A31U U62G	0
A36C C46A	0.026
C46G U52G	0.232
A39G U52C	0.26
C3U G19C	0.373
G29C A39U	0.0768
C12U A22U	0.759
G51C G69A	0.336
G15A C16U	1.01
U20C C50G	0.262
G29C U53A	0.116
U20A U63C	0.147
G15U G57U	0.296
C48A A49U	0.172
G15U G69C	0.434
G29A U55A	0.13
C6A U62A	0.127
G21A G42C	0.281
G40A G68A	0.211

Variant	self-cleavage
C3A A24G	0.704
G13C U52C	0.646
U20A A49G	0.437
A11U A49C	0.24
U8G G27U	0.289
C46U U53G	0.216
A36C C38G	0.117
U52C C66A	0.279
A11G A47U	0.131
C3U A71G	0.653
G32C U33C	0.0618
C12A C37A	0.27
C3A U5G	0.117
U5C C46U	0.023
A30G U58C	0.0836
U14C C38G	0.246
G1U A49C	0.202
C50G	0.275
G1C A35C	0.0578
A31G C37G	0.162
C4U C65U	0.175
G19U G56U	0.179
C48A A64G	0.127
A26U G56A	0.129

Variant	self-cleavage
A26G C37U	0.602
A36C U67G	0.175
C16G U55A	0.265
G51A A64C	0.173
U60G G69A	0.0995
C38U U55G	0.137
G1U C18A	0.157
U33C A36G	0.0993
G32U G56C	0.152
A24G G56U	0.122
A28G A71U	0.771
C16A A24U	0.632
A22G G54U	0.423
A36G A64G	0.492
U62C C65A	0.212
A31U A59U	0.201
A24C U52C	0.872
C46G A47G	0.136
A31G G32A	0.0999
C12G C46A	0.191
G19U G68A	0.286
U52G A61U	0.0725
